Reference: the RNAGym collection of RNA variant scans (doi:10.1073/pnas.2313332121)
Fewer inactive variants are shown than the library holds.

B1: TPR 5TU (parent)
chain: GGAUCUUCUCGAUCUAACAAAAAAGACAAAUCUGCCACAAAGCUUGAGAGCAUCUUCGGAUGCAGAGGCGGCAGCCUUCGGUGGCGCGAUAGCGCCAACGUUCUCAACUAUGACACGCAAAACGCGUGCUCCGUUGAAUGGAGUUUAUCAUG

Variants of: B1
Assay: polymerase ribozyme fitness, log enrichment relative to wild type (log ratio); higher = more active; in vitro selection for triplet polymerase activity
Method in brief: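 PCR was used to build mutant libraries for each subunit of a heterodimeric triplet polymerase ribozyme, which were then transcribed. A single in vitro selection round, in triplicate, used a frozen incubation at −7 °C and recovered extended constructs by gel excision, streptavidin beads and RT-PCR. Fitness is the logarithm of genotype enrichment relative to wild-type enrichment, averaged over replicates with inverse-variance weights. The logarithm is base 2, and after Illumina sequencing only genotypes with ≥10 input reads and ≥1 read per output were kept.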

Going from GGAUCUUCUCGAUCUAACAAAAAAGACAAAUCUGCCACUAAGCUUGAGAGCAUCUUCGGAUGCAGAGGCGGCAGCCUUCGGUGGCGCGAUAGUGCCAACGUUCUCAACUAUGACACGCAAAACGCGUGCUCCGUUGAAUGGAGCUUAUCAUG to GGAUCUUCUCGAUCUAACAAAAAAGACAAAUCUGCCACUAAGCUUGAGAGCAUCUUCGGAUGCAGAGGCGGCAGCCUUCGGUGGCGCGAUAGCGCCAACGUUCUCAACUGUGACACGCAAAACGCGUGCUCCGUUGAAUGGAGUUUAGCAUG, the “polymerase ribozyme fitness (log ratio)” value falls from -3.54 to -4.

Going from GGAUCUUCUCGAUCUAACAAAAAAGACAAAUCUGCCACUAAGCUUGAGAGCAUCUUCGGAUGCAGAGGUGGCAGCCUUCGGCGGCGCGAUAGCGCUAACGUUCUCAACUAUGACACGCAAAACGCGUGCUCCGUUGAAUGGAGUUUAUCAUG to GGAUCUUCUCGAUCUAACAAAAAAGACAAAUCUGCCACUAAGCUUGAGAGCAUCUUCGGAUGCAGAGGCGGCAGCCUUCGGUGGCGCGAUAGCGCCAACGUUCUCAACUAUGACACGCAAAACGCGUGCUCCGUUGACUGGAGUUUAUCGUG, the “polymerase ribozyme fitness (log ratio)” value falls from -2.44 to -4.1.

GGAUCUUCUCGAUCUAACAAAAAAGACAAAUCUGCCACUAAGCUUGAGUGCAUCUUCGCAUGCAGAGGCGGCAGCCUUCGGUGGCGCGAUAGCGCCAACGUUCUCAACUAUGACACGCAAAACGCGUGCUCUGUUGAAUGGAGUUUAACAUG and GGAUCUUCUCGAUCUAACAAAAAAGACAAAUCUGCCACUAAGCUUGAGAGCAUUUUCGGUUGCAGAGGCGGCAGGCUUAGGUGGCGCGAAAGCGCCAACGUUCUCAACUAUGACACGCAAAACGCGUGCUCCGUUGAAUGGAGUUUAUCAUG cannot be ordered by “polymerase ribozyme fitness (log ratio)” value: ≤ -4.2 for the first, ≤ -4.2 for the second.

Going from GGAUCUUCUCGAUCUAACAAAAAAGACAAAUCUGCCACUAAGCUUGAGAGCCUCUUUCGAUGCAGAGGCGGCAGCCUUCGGUGGCGCGAUAGCGCCAACGUUCUCAACUAUGACACGCAAAACGCGUGCUCCGUUGAAUGGAGUUUAUCAUG to GGAUCUUCUCGAUCUAACAAAAAAGACAAAUCUGCCACUAAGCUUGAGUGCAUCUUCGGAUGCAGAGGCGGCAGCCUUCGGUGGCGCGAUAGCGCCAACGUUCUCAACUAUGACACGCAAAACGCGUGCUCCGUUGAAUGGAGUUUAUCAUG, the “polymerase ribozyme fitness (log ratio)” value falls from -3 to -4.19.

GGAUCUUCUCGAUCUAACAAAAAAGACAAAUCUGCCACUAAGAAUGAGAGCAUCUGCGCAUGCAGAGGCGGCAGCCUUCGGUGGCGCGAUAGCACCAACGUUGUCAACUAUGACACGCAAAACGCGUGCUCCGUUGAAUGGAGAUUAUCAUG and GGAUCUUCUCGAUCUAACAAAAAAGACAAAUCUGCCACUAAGCUUGAGAGCUUCUUCGGAUGCAGAGGCGGCAGCCUUCGGUAGCGCGAUAGCGCCAACGUUCUCAACGAUGACACGCAAAACGCGUGCUCCGUUGAAUGGAGUUUAUCAUG cannot be ordered by “polymerase ribozyme fitness (log ratio)” value: ≤ -4.2 for the first, ≤ -4.2 for the second.

Going from GGAUCUUCUCGAUCUAACAAAAAAGACAAAUCUGCCACUAAGCUUGAGAGCAUCUUCGGUUGCAGAGGCGGCAGCCUUCGGUGUCGCGAUAGCGCCAACGUUCUCAACUAUGACACGCAAAACGCGUGCUCCGUUGAAUGGAGUUUAUCAUG to GGAUCUUCUCGAUCUAACAAAAAAGACAAAUCUGCCACUAAGCUUGAGAGCAUCUUCGGAUGCAGAGGCGGCGGCCUUCGGUGGCGCGAUAGCGCCAACGUUCUCAACUAUGACACGCAAAACGCGUGCUCCGUUGAAUGGAGUUUAUCAUG, the “polymerase ribozyme fitness (log ratio)” value rises from -3.96 to -2.4.

GGAUCUUCUCGAUCUAACAAAAAAGACAAAUCUGCCACUAAGCUUGAGAGCAUCUUCGGAUGCAGAGGCGGCAGCCUUCGGUGGCGUGAUAGCGCCAACGUUCUCAACUAUGACACGCAAAACGCGUGCUCCUUGGAAUGGAGUUUAUCAUG and GGAUCUUCUCGAUCUAACAAAAAAGACAAAUCUGCCACUAAGCUUGAGGGCAUCUUCAGAUGCAAAGGCGGCAGCCUUCGGUGGCGCGAUAGCGCCAACGUUCUCAACUAGGACACGCAAAACGCGUGCUCCGUUGAAUGGAGUUUAUCGUG cannot be ordered by “polymerase ribozyme fitness (log ratio)” value: ≤ -4.2 for the first, ≤ -4.2 for the second.

First: GGAUCUUCUCGAUCUAACAAAAAAGACAAAUCUGCCACUAAGCUUGGGAGCAUCUUCGGAUGCAGAGGCGGCAGCCUACGGUGGCGCGAUAGCGCCUACGUUCUCAACUAUGACACGCAAAACGCGUGCUCCGUUGAAUGGAGUUUAUCAUG
Second: GGAUCUUCUCGAUCUAACAAAAAAGACAAAUCUGCCACUAAGCUUGAGAGCAUCUUCGGAUGCAGAGGCGGCAGCCUUCGGUGGCGCGGUAGCGCCAACGUUCUCAACUAUGACACGCAAAACGCGUGCUCCGUUGAAUGGAGUUUAUCAUG
The “polymerase ribozyme fitness (log ratio)” value of the first is lower: ≤ -4.2 for the first, -2.99 for the second.

Compared with GGAUCUUCUCGAUCUAACAAAAAAGACAAAUCUGCCACUAAGCUUGAGAGCAUCUUCGGAUGCAGAGGCGGCAGCCUUCGGUGGCGCGAUAGCGCCAAUGUUCUCAACUAUGACACGCAAAACGCGUGCUCCGUUGAAUGGAGUUGAUCAUG, GGAUCUUCUCGAUCUAACAAAAAAGACAAAUCUGCCACUAAGCUUGAGAGCAUUUUCGGAUGCAGAGGCGGCAGCAUUCGGUGGCGCGAUCGCGCCAACGUUCUCAACUAUGACACGCAAAACGCGUGCUCCGUUGAAGGGAGUUUAUCAUG is lower in “polymerase ribozyme fitness (log ratio)” value: -2.56 for the first, ≤ -4.2 for the second.

For GGAUCUUCUCGAUCUAACAAAAAAGACAAAUCUGCCACUAAGCUUGAGAGCAUCUUCGGAUGCAGAGGCGGCAGCCUUCGGUGGCGCGAUAGCGCUAACGUUCUCAACUAUGACACGCAAAACGCGUGCUCCGUUGAAUGGAGUUUAUCAUG, the “polymerase ribozyme fitness (log ratio)” value was -2.1.
